# Assay results as given in the supplement of paper PMC7125110.
# ± gives the standard error. This sample holds only a part of the variants without activity.
# B1: glmS ribozyme (parent)
# chain: AUAAAAGCGCCAGAACUACAGAAAUGUAGUUGACGAGGAGGAGGUUUAUCGAAUUUUCGGCGGAUGCCUCCAAA
# Variants of: B1
# Assay: self-cleavage kobs at 2500 uM GlcN6P; higher = faster cleavage; RNA array
# Details: with glucosamine-6-phosphate
# Method in brief: (§1)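 Using a hybridised Cy3 probe at 37 °C, barcoded ribozyme variants transcribed in situ by E. coli RNA polymerase on sequenced MiSeq chips were monitored across tiles imaged over ~14 h. The flow contained glucosamine-6-phosphate from 40 μM to 10 mM in HEPES/KCl/Mg(OAc)2 buffer. Signals were normalised to baseline and to non-cleaving reference variants before per-tile medians were fit to one- or two-exponential decays to yield kobs. Weighted Michaelis–Menten fits across concentrations gave kcat and KM.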
row,Variant,self-cleavage kobs at 2500 uM GlcN6P
1,A6C A12G A15G,< 1e-05 s⁻¹
2,A6G A33G A42U G60U,< 1e-05 s⁻¹
3,A6C U55G C71U,6.13e-05 ± 2e-05 s⁻¹
4,C50G A53C U54A U69A,0.000283 ± 0.00011 s⁻¹
5,A6C A52U G60A,< 1e-05 s⁻¹
6,U47C U49G C50U,< 1e-05 s⁻¹
7,G51U U56A G63U,< 1e-05 s⁻¹
8,U47G U57G C61G C67U,0.000254 ± 6.6e-05 s⁻¹
9,A5U A64U,8.83e-05 ± 2.8e-05 s⁻¹
10,U46G G51U C71U,< 1e-05 s⁻¹
11,A53U G62U,< 1e-05 s⁻¹
12,A6C A15G U30C,2.76e-05 ± 1.3e-05 s⁻¹
13,A53G U54A G63U,< 1e-05 s⁻¹
14,A6C A14C A15U A42G,< 1e-05 s⁻¹
15,A6C A39C G60U,< 1e-05 s⁻¹
16,A6C G9U C70A,< 1e-05 s⁻¹
17,U55A U56A,0.00346 ± 0.0013 s⁻¹
18,A6G C11A U49G,< 1e-05 s⁻¹
19,A6G A42G C67U C70U,< 1e-05 s⁻¹
20,U47C U55A,0.00273 ± 0.00077 s⁻¹
21,A52C A53U U55A U65A,< 1e-05 s⁻¹
22,A6C G41U C58U C68U,< 1e-05 s⁻¹
23,A6C G40A U46G G51U,< 1e-05 s⁻¹

row,Variant,self-cleavage kobs at 2500 uM GlcN6P
1,A6C G13C G29A U30G G32U A33G C34A C50U,< 1e-05 s⁻¹
2,A6C G38A G62U,< 1e-05 s⁻¹
3,A6C A15U G35A G40U,< 1e-05 s⁻¹
4,A6C A48C G51U,< 1e-05 s⁻¹
5,A52G C61G U69A,5.25e-05 ± 2.2e-05 s⁻¹
6,C50G U57G G66U C70G,0.000139 ± 4.9e-05 s⁻¹
7,C50G G60C C70A,5.41e-05 ± 2.7e-05 s⁻¹
8,A6C U31A A48C,< 1e-05 s⁻¹
9,U55A C67A C68U,0.000218 ± 4e-05 s⁻¹
10,A6G C11G A33U G59C,< 1e-05 s⁻¹
11,A6G A52G G62C,< 1e-05 s⁻¹
12,U55G C67A C68G,7.14e-05 ± 1.6e-05 s⁻¹
13,A6C A36U G37C A39U,< 1e-05 s⁻¹
14,A6C A48G A52G,< 1e-05 s⁻¹
15,C67A U69A,0.000247 ± 5.8e-05 s⁻¹
16,A48U G59A C67U,< 1e-05 s⁻¹
17,A1U A15G A36U,< 1e-05 s⁻¹
18,A6C A12G G37A,< 1e-05 s⁻¹
19,A6G A14U U54A,0.000117 ± 2.9e-05 s⁻¹
20,A52U A53G G59C,< 1e-05 s⁻¹
21,U56G U57G U65C,< 1e-05 s⁻¹
22,U49C U65C U69A,< 1e-05 s⁻¹

# Variants of: B1
# Assay: self-cleavage kobs at 640 uM GlcN6P; higher = faster cleavage; RNA array
# Details: with glucosamine-6-phosphate
# Method in brief: as §1
row,Variant,self-cleavage kobs at 640 uM GlcN6P
1,C50G A53C U54A U69A,0.000691 ± 0.00026 s⁻¹
2,G62A G66C C67A,< 1e-05 s⁻¹
3,A48G C50G C58G,0.000184 ± 8.1e-05 s⁻¹
4,U56C A64C,< 1e-05 s⁻¹
5,U47C U49G C50U,< 1e-05 s⁻¹
6,A53U C58U C67U,9.41e-05 ± 4.6e-05 s⁻¹
7,C50G A52U,< 1e-05 s⁻¹
8,G51U U56A G63U,< 1e-05 s⁻¹
9,U47G U57G C61G C67U,0.000132 ± 5.3e-05 s⁻¹
10,G51A U54C U55G,< 1e-05 s⁻¹
11,U46G G51U C71U,< 1e-05 s⁻¹
12,A53U G62U,< 1e-05 s⁻¹
13,A48G C50U A52U C70G,4.03e-05 ± 2e-05 s⁻¹
14,A53G U54A G63U,< 1e-05 s⁻¹
15,U55A G63U C70G,6.74e-05 ± 2.6e-05 s⁻¹
16,A48G A52C U57G,< 1e-05 s⁻¹
17,U49C G63C C67G C68G,< 1e-05 s⁻¹
18,U49A G66A,< 1e-05 s⁻¹
19,A52C C58G,< 1e-05 s⁻¹
20,U47G G59A C67G,0.000579 ± 0.00015 s⁻¹
21,C50A G51U,< 1e-05 s⁻¹
22,U55A U56A,0.00306 ± 0.00092 s⁻¹
23,G60U G66C C70U,< 1e-05 s⁻¹

row,Variant,self-cleavage kobs at 640 uM GlcN6P
1,A48U A53C C68G C71G,9.77e-05 ± 3.4e-05 s⁻¹
2,U47C U55A,0.00113 ± 0.00019 s⁻¹
3,A53G G60A C61G,< 1e-05 s⁻¹
4,A52C A53U U55A U65A,< 1e-05 s⁻¹
5,U47A C58U U65C,< 1e-05 s⁻¹
6,A52G C61G U69A,0.000109 ± 4.4e-05 s⁻¹
7,C50G U57G G66U C70G,0.000982 ± 0.0003 s⁻¹
8,C50A A52C C61A C68U,0.000706 ± 0.00019 s⁻¹
9,C50G G60C C70A,0.000161 ± 5.8e-05 s⁻¹
10,U55A C67A C68U,8.42e-05 ± 2.6e-05 s⁻¹
11,U47A G60C U69C,0.00785 ± 0.0036 s⁻¹
12,U55G C67A C68G,8.64e-05 ± 2.7e-05 s⁻¹
13,U57G C67G,0.000478 ± 0.00018 s⁻¹
14,C67A U69A,0.000234 ± 4.1e-05 s⁻¹
15,A48U G59A C67U,< 1e-05 s⁻¹
16,U54G G66C,0.000405 ± 6.3e-05 s⁻¹
17,A52U A53G G59C,< 1e-05 s⁻¹
18,U56G U57G U65C,< 1e-05 s⁻¹
19,G60U G62A C67U,< 1e-05 s⁻¹
20,G66C C68U C70U,0.000337 ± 9.2e-05 s⁻¹
21,A52C U57G U69G,8.06e-05 ± 2.8e-05 s⁻¹
22,U49G C50G G63C U69C,0.00018 ± 4.2e-05 s⁻¹
23,U49C U65C U69A,< 1e-05 s⁻¹

# Variants of: B1
# Assay: self-cleavage kobs at 10000 uM GlcN6P; higher = faster cleavage; RNA array
# Details: with glucosamine-6-phosphate
# Method in brief: as §1
row,Variant,self-cleavage kobs at 10000 uM GlcN6P
1,C50G A52U,< 1e-05 s⁻¹
2,A53U G62U,< 1e-05 s⁻¹
3,A52C C58G,< 1e-05 s⁻¹
4,C50A G51U,< 1e-05 s⁻¹
5,A6C G9U C70A,< 1e-05 s⁻¹
6,U55A U56A,0.0126 ± 0.0024 s⁻¹
7,U47C U55A,0.00496 ± 0.0011 s⁻¹
8,A6C U31A A48C,< 1e-05 s⁻¹
9,U55A C67A C68U,0.000108 ± 2.8e-05 s⁻¹
10,U57G C67G,2.33e-05 ± 1e-05 s⁻¹
11,U54G G66C,0.00079 ± 0.00012 s⁻¹
